The subject of the data set is brain punch homogenate from the A2 region. It is filed as biochemical, dog. The note with it: pH 7.5. From the text:
To study the metabolism of angiotensin in brain punch homogenates, ^125 I-labelled Ang I and Ang II (New England Nuclear, Boston, Mass., USA) were purified initially to remove the peptidase inhibitor trasylol by reverse phase high performance liquid chromatography (HPLC) using a Nova-Pak C column (Waters Associates, Milford, Mass., USA). Peptides were eluted isocratically with 33.6% acetonitrile (Burdick and Jackson, American Scientific Products, Columbus, Ohio, USA) in 0.13% heptafluorbutyric acid (HFBA; Sequenal grade, Pierce, Rockford, Ill., USA) at a flow rate of 1 ml/min. The effluent (0.25 ml/fraction) was collected in tubes precoated with bovine serum albumin (BSA; Pentex, Miles Scientific, Naperville, Ill., USA). After evaporation in a vacuum centrifuge (Savant, Farmingdale, N.Y., USA), the purified peptides were redissolved in water.
The metabolism of ^125 I-Ang I and ^125 I-Ang II was studied by incubating 10 μl of brain homogenates with 190 μl of an assay solution containing 50 pM labelled standards in 20 mM Tris HCl buffer, pH 7.5, and 0.01% BSA for 2 to 15 minutes at 37° C. The reactions were stopped by the addition of 100 μl of 32% acetonitrile containing 0.13% HFBA, followed by centrifugation at 18,000 g for 2 minutes. […]

No end group written: not given here.

On to “^125 I-Ang II: 125I-labelled Ang II used as substrate (DRVYIHPF; also: 125I label; UniProt P01019 25-32, looked up)”, for which the “major / primary metabolic product of the labelled peptide” value is “Ang-(1-7)”.

Values taken from patent US5451571A (The Cleveland Clinic Foundation, priority 1994, dated 1995).
